The record followed here is US20210230266A1 (SINGAPORE HEALTH SERVICES PTE, published 2021).

Assay [1] addresses T1, Human IL-11 (human, UniProt P20809 22-199).
T1 construct: Recombinant human IL-11 (GenScript Cat. No. Z03108-1) or IL-11 secreted by human cells; the mature form is said to have 178 residues; also called recombinant human IL-11; endogenously produced IL-11
T1 sequence: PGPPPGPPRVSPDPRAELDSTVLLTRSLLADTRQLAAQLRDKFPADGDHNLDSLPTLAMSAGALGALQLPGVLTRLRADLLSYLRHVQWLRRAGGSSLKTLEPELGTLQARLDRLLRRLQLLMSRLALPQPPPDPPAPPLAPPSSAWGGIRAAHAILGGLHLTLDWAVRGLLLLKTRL
In words: ELISA. On the procedure: (§1) The soluble scFv were produced by recombinant expression in E. coli, and analysed for their ability to bind to human IL-11 and murine IL-11 by ELISA. Briefly, the respective antigen was coated to wells of an ELISA plate, the cell culture supernatant containing the respective scFv was added at a 1:2 dilution, and binding was detected.
In general terms: ELISA stands for enzyme-linked immunosorbent assay.

The next assay addresses T2, Mouse IL-11 (mouse, UniProt P47873 22-199, limits assumed).
T2 construct: also called murine IL-11; recombinant murine IL-11
T2 sequence (looked up): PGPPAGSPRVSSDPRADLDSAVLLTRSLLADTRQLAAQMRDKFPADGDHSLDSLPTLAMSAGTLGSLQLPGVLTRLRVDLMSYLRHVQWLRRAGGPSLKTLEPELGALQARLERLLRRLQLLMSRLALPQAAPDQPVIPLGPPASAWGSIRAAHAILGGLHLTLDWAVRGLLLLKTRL
In words: ELISA. The protocol:
as §1

The target in assay [2] is T1, Human IL-11. In words: cell-based or functional assay.
Throughout, for MMP2 production, Experiment 1 (human atrial fibroblasts + TGFB1): test concentration or dose not given here.
Throughout, for MMP2 production, Experiment 2 (human atrial fibroblasts + TGFB1): test concentration or dose not given here.

B1: YU112-G01 (antibody)
chain: QVQLVESGGGVVQPGRSLRLSCAASGFTFSSYGMHWVRQAPGKGLEWVAVISYDGSNKYYADSVKGRFTISRDNSKNTLYLQMNSLRAEDTAVYYCAKLSGPNGVDYWGQGTLVTVSSGSASAPKLEEGEFSEARVQSALTQPRSVSGSPGQSVTISCTGTISDVGGYNYVSWYQQHPGKAPKLMIYDVTKRPSGVPDRFSGSKSGNTASLTISGLQAEDEAGYYCSSYAGSYTWVFGGGTELTVL
With B1, in the assay with Human IL-11 [1], the “hIL11 - average signal” value was 0.528. Further, the “mIL11 - average signal” value with Mouse IL-11 amounted to 0.794. Also, in the assay with Human IL-11 [2], the “MMP2 production, Experiment 1 (human atrial fibroblasts + TGFB1)” value came out at 47.6 ng/mL and the “MMP2 production, Experiment 2 (human atrial fibroblasts + TGFB1)” value was determined as 43.8 ng/mL.

B2: YU100-D07 (antibody)
chain: QVQLVESGGGVVQPGRSLRLSCAASGFTFSSYAMHWVRQAPGKGLEWVAVISYDGSNKYYADSVKGRLTISRDNSKNTLYLQMNSLRAEDTAVYYCARIMGYDYGDYDVVDYWGQGTLVTVSSGSASAPKLEEGEFSEARVQSALTQPRSVSGSPGQSVTISCTGTSGDVGTYDYVSWYQQHPGKAPKLMIYDVSKRPSGVPDRFSGSKSGNTASLTISGLQAEDEADYYCNSYAGSYTWVFGGGTKLTVLGQPKTAPSVTLFPPSS
Take B2: the “hIL11 - average signal” value in the assay with Human IL-11 [1] came out at 0.246. Moreover, the “mIL11 - average signal” value in the assay with Mouse IL-11 is 0.322.

B3: YU100-F06 (antibody)
chain: QVQLVESGGGVVQPGRSLRLSCAASGFTFSSYGMHWVRQAPGKGLEWVAVISYDGSNKYYADSVKGRFTISRDNSKNTLYLQMNSLRAEDTAVYYCARIMGYDYGDYDVVDYWGQGTLVTVSSGSASAPKLEEGEFSEARVQSALTQPRSVSGSPGQSVTISCTGSSSDVGGYNFVSWYRQHPGEAPKLVIFDVNKRPSGVPDRFSGSKSGNTASLTISGLQTEDEADYFCCSYAGGYTWVFGGGTKVTVV
Take B3: in the assay with Human IL-11 [1], the “hIL11 - average signal” value worked out at 0.16. Besides, the “mIL11 - average signal” value in the assay with Mouse IL-11 is 0.481.

B4: YU100-G11 (antibody)
chain: QVQLVESGGGVVQPGRSLRLSCAASGFTFSSYGMHWVRQAPGKGLEWVAVISYDGSNKYYADSVKGRFTISRDNSKNTLYLQMNSLRAEDTAVYYCARIMGYDYGDYDVVDYWGQGTLVTVSSGSASAPKLEEGEFSEARVQSALTQPRSVSGSPGQSVTISCTGTSSDVGGYNYVSWYQQHPGKAPKLTLYDVGKRPSGVPDRFSGSKSGNTASLTISGLQAEDEADYYCCSYAGGYTWVFGGGTKVTVV
As for B4, in the assay with Human IL-11 [1], the “hIL11 - average signal” value was 0.498. Besides, the “mIL11 - average signal” value in the assay with Mouse IL-11 is 0.507.

B5: YU100-B09 (antibody, V domains shown)
VH: QVQLVQSGGGVVQPGRSLRLSCAASGFTFSSYGMHWVRQAPGKGLEWVAVISYDGSNKYYADSVKGRFTISRDNSKNTLYLQMNSLRAEDTAVYYCAKIGATDPLDYWGQGTLVTVSS
On to B5, for which, in the assay with Human IL-11 [1], the “hIL11 - average signal” value was found to be 0.21. The “mIL11 - average signal” value with Mouse IL-11 was found to be 0.293.

B6: YU100-F05 (antibody)
chain: QVQLQQSGGGVVQPGRSLRLSCAASGFTFSSYGMHWVRQAPGKGLEWVAVISYDGSNKYYADSVKGRFTISRDNSKNTLYLQMNSLRAEDTAVYYCAKIGATDPLDYWGQGTLVTVSSGSASAPKLEEGEFSEARVQAVLTQPASVSGSPGQSITISCTGTSSDIGGYNYVSWYQQHPGTAPKLMIYDVSSRPSGVSNRFSGSKSGNTASLTISGLQAEDEADYYCCSYAGSYTWVFGGGTKMTVL
Take B6: in the assay with Human IL-11 [1], the “hIL11 - average signal” value amounted to 0.304. In addition, the “mIL11 - average signal” value with Mouse IL-11 turned out to be 0.542.

B7: YU112-C09 (antibody)
chain: QVQLVQSGGGVVQPGRSLRLSCAASGFTFGSYGMHWVRQAPGKGLEWVAVISYDGSNKYYADSVKGRFTISRDNSKNTLYLQMNSLRAEDTAVYYCAKGSYYFDYWGQGTLVTVSSGSASAPKLEEGEFSEARVETTLTQSPATLSVSPGERATLSCRASQSFSSSYLAWYQQKPGQAPRLLIYGASRRAPGIPDRFSGSGSGTDFSLTISRLEPEDFAVYYCQQSSTSPTWAFGRGTKVEVK
Turning to B7, in the assay with Human IL-11 [1], the “hIL11 - average signal” value was 0.593. In addition, in the assay with Mouse IL-11, the “mIL11 - average signal” value is 0.898.
